Reference: ChEMBL document CHEMBL2203217, “Prohormone-substrate peptide sequence recognition by peptidylglycine α-amidating monooxygenase and its reflection in increased glycolate inhibitor potency” (Bioorg Med Chem Lett, 2012)

Columns and labels:
[1] = substrate: CC(=O)N1CCC[C@H]1C(=O)N[C@@H](CC(C)C)C(=O)NCC(=O)NCC(=O)O; test: (§1) Binding affinity to secreted PAM in human DMS53 cell culture medium after 2 hrs by HPLC analysis; conditions: DMS-53
[2] = substrate: CC(=O)N1CCC[C@H]1C(=O)N[C@@H](CC(C)C)C(=O)N[C@@H](Cc1ccccc1)C(=O)NCC(=O)O; test: as §1; conditions: DMS-53
[3] = substrate: CC(=O)NCC(=O)NCC(=O)O; test: as §1; conditions: DMS-53
[4] = substrate: CC(=O)NCC(=O)O; test: as §1; conditions: DMS-53
[5] = substrate: CC(=O)N[C@@H](CC(C)C)C(=O)NCC(=O)NCC(=O)O; test: as §1; conditions: DMS-53
[6] = substrate: CC(=O)N[C@@H](CC(C)C)C(=O)N[C@@H](Cc1ccccc1)C(=O)NCC(=O)O; test: as §1; conditions: DMS-53
[7] = substrate: CC(=O)N[C@@H](Cc1ccccc1)C(=O)NCC(=O)O; test: as §1; conditions: DMS-53
[8] = substrate: CC(C)[C@H](N)C(=O)NCC(=O)N[C@@H](C)C(=O)N1CCC[C@H]1C(=O)NCC(=O)O; test: as §1; conditions: DMS-53
[9] = substrate: CC(C)[C@H](N)C(=O)NCC(=O)N[C@@H](C)C(=O)N[C@@H](Cc1ccccc1)C(=O)NCC(=O)O; test: as §1; conditions: DMS-53
[10] = substrate: CC[C@H](C)[C@@H]1NC(=O)[C@H](Cc2ccc(O)cc2)NC(=O)[C@@H](N)CSSC[C@@H](C(=O)N2CCC[C@H]2C(=O)N[C@@H](CC(C)C)C(=O)NCC(=O)NCC(=O)O)NC(=O)[C@H](CC(N)=O)NC(=O)[C@H](CCC(N)=O)NC1=O; test: as §1; conditions: DMS-53
[11] = substrate: CC[C@H](C)[C@@H]1NC(=O)[C@H](Cc2ccc(O)cc2)NC(=O)[C@@H](N)CSSC[C@@H](C(=O)N2CCC[C@H]2C(=O)N[C@@H](CC(C)C)C(=O)N[C@@H](Cc2ccccc2)C(=O)NCC(=O)O)NC(=O)[C@H](CC(N)=O)NC(=O)[C@H](CCC(N)=O)NC1=O; test: as §1; conditions: DMS-53
[12] = substrate: CC[C@H](C)[C@H](NC(=O)[C@H](C)NC(=O)[C@@H](NC(=O)[C@H](CCC(N)=O)NC(=O)[C@@H]1CCCN1C(=O)[C@H](Cc1ccccc1)NC(=O)[C@@H](NC(=O)[C@H](Cc1cnc[nH]1)NC(=O)[C@H](Cc1ccccc1)NC(=O)[C@H](CCCCN)NC(=O)[C@H](CC(N)=O)NC(=O)[C@H](Cc1ccccc1)NC(=O)[C@H](CC(=O)O)NC(=O)[C@H](CCC(N)=O)NC(=O)[C@@H](NC(=O)[C@H](Cc1ccc(O)cc1)NC(=O)[C@@H](NC(=O)CNC(=O)[C@H](CC(C)C)NC(=O)[C@H](CCSC)NC(=O)[C@@H]1CSSC[C@H](N)C(=O)NCC(=O)N[C@@H](CC(N)=O)C(=O)N[C@@H](CC(C)C)C(=O)N[C@@H](CO)C(=O)N[C@@H]([C@@H](C)O)C(=O)N1)[C@@H](C)O)[C@@H](C)O)[C@@H](C)O)[C@@H](C)O)C(=O)NCC(=O)N[C@H](C(=O)NCC(=O)N[C@@H](C)C(=O)N1CCC[C@H]1C(=O)NCC(=O)O)C(C)C; test: as §1; conditions: DMS-53
[13] = substrate: CC[C@H](C)[C@H](NC(=O)[C@H](C)NC(=O)[C@@H](NC(=O)[C@H](CCC(N)=O)NC(=O)[C@@H]1CCCN1C(=O)[C@H](Cc1ccccc1)NC(=O)[C@@H](NC(=O)[C@H](Cc1cnc[nH]1)NC(=O)[C@H](Cc1ccccc1)NC(=O)[C@H](CCCCN)NC(=O)[C@H](CC(N)=O)NC(=O)[C@H](Cc1ccccc1)NC(=O)[C@H](CC(=O)O)NC(=O)[C@H](CCC(N)=O)NC(=O)[C@@H](NC(=O)[C@H](Cc1ccc(O)cc1)NC(=O)[C@@H](NC(=O)CNC(=O)[C@H](CC(C)C)NC(=O)[C@H](CCSC)NC(=O)[C@@H]1CSSC[C@H](N)C(=O)NCC(=O)N[C@@H](CC(N)=O)C(=O)N[C@@H](CC(C)C)C(=O)N[C@@H](CO)C(=O)N[C@@H]([C@@H](C)O)C(=O)N1)[C@@H](C)O)[C@@H](C)O)[C@@H](C)O)[C@@H](C)O)C(=O)NCC(=O)N[C@H](C(=O)NCC(=O)N[C@@H](C)C(=O)N[C@@H](Cc1ccccc1)C(=O)NCC(=O)O)C(C)C; test: as §1; conditions: DMS-53
[14] = substrate: C[C@H](N)C(=O)N1CCC[C@H]1C(=O)NCC(=O)O; test: as §1; conditions: DMS-53
[15] = substrate: C[C@H](N)C(=O)N[C@@H](Cc1ccccc1)C(=O)NCC(=O)O; test: as §1; conditions: DMS-53
[16] = substrate: C[C@H](NC(=O)CN)C(=O)N1CCC[C@H]1C(=O)NCC(=O)O; test: as §1; conditions: DMS-53
[17] = substrate: C[C@H](NC(=O)CN)C(=O)N[C@@H](Cc1ccccc1)C(=O)NCC(=O)O; test: as §1; conditions: DMS-53
[18] = substrate: N[C@@H](Cc1ccccc1)C(=O)NCC(=O)O; test: as §1; conditions: DMS-53
[19] = substrate: O=C(O)CNC(=O)[C@@H]1CCCN1; test: as §1; conditions: DMS-53
[20] = substrate: CC(=O)N1CCC[C@H]1C(=O)N[C@@H](CC(C)C)C(=O)NCC(=O)NCC(=O)O; test: (§2) Binding affinity to PAM in human DMS53 cells after 2 hrs by HPLC analysis; format: cell-based
[21] = substrate: CC(=O)N1CCC[C@H]1C(=O)N[C@@H](CC(C)C)C(=O)N[C@@H](Cc1ccccc1)C(=O)NCC(=O)O; test: as §2; format: cell-based
[22] = substrate: CC(=O)NCC(=O)NCC(=O)O; test: as §2; format: cell-based
[23] = substrate: CC(=O)NCC(=O)O; test: as §2; format: cell-based
[24] = substrate: CC(=O)N[C@@H](CC(C)C)C(=O)NCC(=O)NCC(=O)O; test: as §2; format: cell-based
[25] = substrate: CC(=O)N[C@@H](CC(C)C)C(=O)N[C@@H](Cc1ccccc1)C(=O)NCC(=O)O; test: as §2; format: cell-based
[26] = substrate: CC(=O)N[C@@H](Cc1ccccc1)C(=O)NCC(=O)O; test: as §2; format: cell-based
[27] = substrate: CC(C)[C@H](N)C(=O)NCC(=O)N[C@@H](C)C(=O)N1CCC[C@H]1C(=O)NCC(=O)O; test: as §2; format: cell-based
[28] = substrate: CC(C)[C@H](N)C(=O)NCC(=O)N[C@@H](C)C(=O)N[C@@H](Cc1ccccc1)C(=O)NCC(=O)O; test: as §2; format: cell-based
[29] = substrate: CC[C@H](C)[C@@H]1NC(=O)[C@H](Cc2ccc(O)cc2)NC(=O)[C@@H](N)CSSC[C@@H](C(=O)N2CCC[C@H]2C(=O)N[C@@H](CC(C)C)C(=O)NCC(=O)NCC(=O)O)NC(=O)[C@H](CC(N)=O)NC(=O)[C@H](CCC(N)=O)NC1=O; test: as §2; format: cell-based
[30] = substrate: CC[C@H](C)[C@@H]1NC(=O)[C@H](Cc2ccc(O)cc2)NC(=O)[C@@H](N)CSSC[C@@H](C(=O)N2CCC[C@H]2C(=O)N[C@@H](CC(C)C)C(=O)N[C@@H](Cc2ccccc2)C(=O)NCC(=O)O)NC(=O)[C@H](CC(N)=O)NC(=O)[C@H](CCC(N)=O)NC1=O; test: as §2; format: cell-based
[31] = substrate: CC[C@H](C)[C@H](NC(=O)[C@H](C)NC(=O)[C@@H](NC(=O)[C@H](CCC(N)=O)NC(=O)[C@@H]1CCCN1C(=O)[C@H](Cc1ccccc1)NC(=O)[C@@H](NC(=O)[C@H](Cc1cnc[nH]1)NC(=O)[C@H](Cc1ccccc1)NC(=O)[C@H](CCCCN)NC(=O)[C@H](CC(N)=O)NC(=O)[C@H](Cc1ccccc1)NC(=O)[C@H](CC(=O)O)NC(=O)[C@H](CCC(N)=O)NC(=O)[C@@H](NC(=O)[C@H](Cc1ccc(O)cc1)NC(=O)[C@@H](NC(=O)CNC(=O)[C@H](CC(C)C)NC(=O)[C@H](CCSC)NC(=O)[C@@H]1CSSC[C@H](N)C(=O)NCC(=O)N[C@@H](CC(N)=O)C(=O)N[C@@H](CC(C)C)C(=O)N[C@@H](CO)C(=O)N[C@@H]([C@@H](C)O)C(=O)N1)[C@@H](C)O)[C@@H](C)O)[C@@H](C)O)[C@@H](C)O)C(=O)NCC(=O)N[C@H](C(=O)NCC(=O)N[C@@H](C)C(=O)N1CCC[C@H]1C(=O)NCC(=O)O)C(C)C; test: as §2; format: cell-based
[32] = substrate: CC[C@H](C)[C@H](NC(=O)[C@H](C)NC(=O)[C@@H](NC(=O)[C@H](CCC(N)=O)NC(=O)[C@@H]1CCCN1C(=O)[C@H](Cc1ccccc1)NC(=O)[C@@H](NC(=O)[C@H](Cc1cnc[nH]1)NC(=O)[C@H](Cc1ccccc1)NC(=O)[C@H](CCCCN)NC(=O)[C@H](CC(N)=O)NC(=O)[C@H](Cc1ccccc1)NC(=O)[C@H](CC(=O)O)NC(=O)[C@H](CCC(N)=O)NC(=O)[C@@H](NC(=O)[C@H](Cc1ccc(O)cc1)NC(=O)[C@@H](NC(=O)CNC(=O)[C@H](CC(C)C)NC(=O)[C@H](CCSC)NC(=O)[C@@H]1CSSC[C@H](N)C(=O)NCC(=O)N[C@@H](CC(N)=O)C(=O)N[C@@H](CC(C)C)C(=O)N[C@@H](CO)C(=O)N[C@@H]([C@@H](C)O)C(=O)N1)[C@@H](C)O)[C@@H](C)O)[C@@H](C)O)[C@@H](C)O)C(=O)NCC(=O)N[C@H](C(=O)NCC(=O)N[C@@H](C)C(=O)N[C@@H](Cc1ccccc1)C(=O)NCC(=O)O)C(C)C; test: as §2; format: cell-based
[33] = substrate: C[C@H](N)C(=O)N1CCC[C@H]1C(=O)NCC(=O)O; test: as §2; format: cell-based
[34] = substrate: C[C@H](N)C(=O)N[C@@H](Cc1ccccc1)C(=O)NCC(=O)O; test: as §2; format: cell-based
[35] = substrate: C[C@H](NC(=O)CN)C(=O)N1CCC[C@H]1C(=O)NCC(=O)O; test: as §2; format: cell-based
[36] = substrate: C[C@H](NC(=O)CN)C(=O)N[C@@H](Cc1ccccc1)C(=O)NCC(=O)O; test: as §2; format: cell-based
[37] = substrate: N[C@@H](Cc1ccccc1)C(=O)NCC(=O)O; test: as §2; format: cell-based
[38] = substrate: O=C(O)CNC(=O)[C@@H]1CCCN1; test: as §2; format: cell-based

B1: Peptidyl-glycine alpha-amidating monooxygenase (Homo sapiens), P19021 (protein)
chain: MAGRVPSLLVLLVFPSSCLAFRSPLSVFKRFKETTRPFSNECLGTTRPVVPIDSSDFALDIRMPGVTPKQSDTYFCMSMRIPVDEEAFVIDFKPRASMDTVHHMLLFGCNMPSSTGSYWFCDEGTCTDKANILYAWARNAPPTRLPKGVGFRVGGETGSKYFVLQVHYGDISAFRDNNKDCSGVSLHLTRLPQPLIAGMYLMMSVDTVIPAGEKVVNSDISCHYKNYPMHVFAYRVHTHHLGKVVSGYRVRNGQWTLIGRQSPQLPQAFYPVGHPVDVSFGDLLAARCVFTGEGRTEATHIGGTSSDEMCNLYIMYYMEAKHAVSFMTCTQNVAPDMFRTIPPEANIPIPVKSDMVMMHEHHKETEYKDKIPLLQQPKREEEEVLDQGDFYSLLSKLLGEREDVVHVHKYNPTEKAESESDLVAEIANVVQKKDLGRSDAREGAEHERGNAILVRDRIHKFHRLVSTLRPPESRVFSLQQPPPGEGTWEPEHTGDFHMEEALDWPGVYLLPGQVSGVALDPKNNLVIFHRGDHVWDGNSFDSKFVYQQIGLGPIEEDTILVIDPNNAAVLQSSGKNLFYLPHGLSIDKDGNYWVTDVALHQVFKLDPNNKEGPVLILGRSMQPGSDQNHFCQPTDVAVDPGTGAIYVSDGYCNSRIVQFSPSGKFITQWGEESSGSSPLPGQFTVPHSLALVPLLGQLCVADRENGRIQCFKTDTKEFVREIKHSSFGRNVFAISYIPGLLFAVNGKPHFGDQEPVQGFVMNFSNGEIIDIFKPVRKHFDMPHDIVASEDGTVYIGDAHTNTVWKFTLTEKLEHRSVKKAGIEVQEIKEAEAVVETKMENKPTSSELQKMQEKQKLIKEPGSGVPVVLITTLLVIPVVVLLAIAIFIRWKKSRAFGDSEHKLETSSGRVLGRFRGKGSGGLNLGNFFASRKGYSRKGFDRLSTEGSDQEKEDDGSESEEEYSAPLPALAPSSS
[1]
  Km: 550 µM
[2]
  Km: 7 µM
[3]
  Km: 1200 µM
[4]
  Km: 9.9 mM
[5]
  Km: 860 µM
[6]
  Km: 11 µM
[7]
  Km: 16 µM
[8]
  Km: 960 µM
[9]
  Km: 18 µM
[10]
  Km: 190 µM
[11]
  Km: 27 µM
[12]
  Km: 200 µM
[13]
  Km: 14 µM
[14]
  Km: 4 mM
[15]
  Km: 200 µM
[16]
  Km: 3000 µM
[17]
  Km: 35 µM
[18]
  Km: 6.5 mM
[19]
  Km: 880 µM
[20]
  Km: 660 µM
[21]
  Km: 6 µM
[22]
  Km: 1600 µM
[23]
  Km: 7.5 mM
[24]
  Km: 860 µM
[25]
  Km: 8 µM
[26]
  Km: 6 µM
[27]
  Km: 1000 µM
[28]
  Km: 8 µM
[29]
  Km: 36 µM
[30]
  Km: 5 µM
[31]
  Km: 200 µM
[32]
  Km: 8 µM
[33]
  Km: 5 mM
[34]
  Km: 180 µM
[35]
  Km: 3000 µM
[36]
  Km: 40 µM
[37]
  Km: 6 mM
[38]
  Km: 980 µM
